Experimental data taken from patent publication US20240226357A1, “Sanitization Method for Affinity Chromatography Matrices” (priority 2015, published 2024).

Assay: LC chromatograms (LC-MS) of ligands before and after incubation in 0.1 M peracetic acid
Format: physicochemical
Settings: 1 h incubation in 0.1 M peracetic acid, UV 280 nm
Experimental: The kinetics was measured by Surface Plasmon Resonance on a Biacore™ instrument. […] 1 ml rPrL and KappaSelect ligand were diluted to 10 mg/ml. • 3. Reference sample (0 h) was withdrawn, 100 μl and buffer exchanged to 50 mM Ammonium Bicarbonate. • 4. 10% 1 M PAA was added and the incubations started. • 5. Samples were withdrawn after 1, 2, 4, 8, 16 and 24 h, 100 μl and buffer exchanged to 50 mM Ammonium Bicarbonate to stop the oxidation reaction. • 6. The concentrations were measured in all samples by measuring the UV absorbance at 276 nm. • 7. The samples were then analyzed on LC-MS and Biacore.

B1: rPrL: recombinant Protein L (protein)
chain: AVENKEETPETPETDSEEEVTIKANLIFANGSTQTAEFKGTFEKATSEAYAYADTLKKDNGEYTVDVADKGYTLNIKFAGKEKTPEEPKEEVTIKANLIYADGKTQTAEFKGTFEEATAEAYRYADALKKDNGEYTVDVADKGYTLNIKFAGKEKTPEEPKEEVTIKANLIYADGKTQTAEFKGTFEEATAEAYRYADLLAKENGKYTVDVADKGYTLNIKFAGKEKTPEEPKEEVTIKANLIYADGKTQTAEFKGTFAEATAEAYRYADLLAKENGKYTADLEDGGYTINIRFAGKKVDEKPEE
- LC chromatograms before and after SIP (degradation): no signs of degradation
